Laboratory results: the DeepSol protein solubility set

experiment: soluble on expression in E. coli; label from the status in PepcDB or PDB records

Row | Sequence | soluble on expression in E. coli
1 | GARIKTLSVSRPIIYGNTAKKMGSVKPPNAPAEHTHLWTIFVRGPQNEDISYFIKKVVFKLHDTYPNPVRSIEAPPFELTETGWGEFDINIKVYFVEEANEKVLNFYHRLRLHPYANPVPNSDNGNEQNTTDHNSKDAEVSSVYFDEIVFNEPNEEFFKILMSR | soluble
2 | MSRLRVFRQTGWFIAGLMTGLPATAAPAEASSMAGVAVAVATTTPPDATATLQAMQSCRRESAALERLDCYDHLLAPLSPSGFDGALVKAGFVGEAWTRATEQEKRREGNTTELLVTQVPGERPTVVITTPAIGHVPPRPVLMFSCVDNITRMQVALMHPLDVHDIAVTLNADSRALRSHWFVRENGTLLESSRGLSGIDEIKQLFGAKTLTVDTGADNAAGKLTFNIDGLARAIAPLRDACHWAGE | not soluble
3 | MSLSRVPRPHIHQRISVEDIMKGNRRTLAKAITLAESSNPADSTRLGNLLREIHQMATVRTVPRFALSGSPGSGKSSLLDTLGYYLCEKKNMHVGVLAVDPSSTITHGSILGDKTRMEKLGTHLNSYIRPSPSGGHLGGVTSRAWEALEIFEAARFDVVFVETVGVGQSETQCKDLTDMMILLVPPASGDELQGIKKGVVEVADMVVVTKNDGRRKPLVQQTMSAYARAVMYTEEKQGFEKPVIAVSAEEGTNVPELWEAMLKMWNARLESGQIAHLRRAQSTKHFYNYFEMELLAKARRMTNLEMQNMAHRVWEHEMTPREAGDIMVLRTLREHLAADAAVQHDAGKRAEGHHHHHH | soluble
4 | MKRVGKQTWVFDDGVYIQAAAAAVGPLEADGPLGSYFDVCHRDLYCGEATWELAERRLMREAVDCCLQKAGVSAEEVDLLLAGDLLNQNATSNYVARELPIPFLCLFGACSTSMQTLAAAAAFVAGGLADRALAATSSHNATAERQFRYPTELGVQKPKTATFTVTGAGAALVGRAPGRWRVRAATIGKVVDAGLKNPLDMGAAMAPAAADTIEQHFRDLGVSPGDYDLIVTGDLSRVGSVIVRELLAESGYDVTDVYNDCGLMIYRPDQKVFAGGSGCACSAVVTYGYLLQELARGTFRRLFVVATGALLSQTMVQQKQSIPAIAHGVVIEAAGQEPDLPP | not soluble
5 | MAHHHHHHMSDAQTVQTLVLWNGEWPYVKRGVSEVRAVAAGVIASANALVDVPAYLARARKYTAAADDFVTAQSARASSTLESHQWVVPAAGIALASVYVVVRSAPWGGMKMMRNGLVTAGALTAFMYPREIVHQIDRAMPFQAPASISEQKNES | not soluble
6 | MPHAPQEQIAPLLTTEGWELLASLGPYREADSFSVNAHLRKAGHSPELVAAVLTQSRLRTRAEAKFGEFARQMLFTQAGLEQATRLNVAARHAERFAKAGISHVADLGCGLGADSMAMASMDISVTAVEMDETTAACATINLMPFPHATVVHADATSVELDGMDGVWLDPARRTTSTSGTKRIWDPEAFSPPLSFVERLAATGRAIGVKMGPGIPHDSVPPGCEAQWVSVGGDVTEVTLWFNAVARPGVRRAALVIGNQGAAEITSGADFDGGPVAAVGPVEGFLYEPDGAVIRAGLVADVAGRLGGHLVDEHIAYICAPELHDTPFARAFKVLEVMPYNVKALKAWVKNQGITVLDIKKRGTAVTPEELRKQLLPAKPVKGKDAKTATLVLTRIGEERVAVVVEPVTA | soluble
7 | MIMANILFIDNFDSFTYNLVDQFRSLGHVVTIYRNNLSADAIEQALLQLDNPVVVLSPGPGAPSETGCMPELLQRLKGKVPMIGICLGHQAIVEAYGGVVAGAGEIIHGKVSMMEHQNHAIYRGLPSPLAIARYHSLVATQVPSALTVTAEVNGLVMSVVNEADKVCGFQFHPESIMTTHGATLLANAIDWALSSTPAQTQFA | not soluble
8 | MKANKVLFITQEITPYVPESEMANMGRFLPQAIQEKGREIRTFMPKWGNVNERRNQLHEVIRLSGMNLIIDDTDHPLIIKVASIQAARMQVYFIDNDDYFQHRQMVADENGVEYKDNDERAIFYARGVLETVKKLRWCPDIIHCQGWMSAFVPLYIKKAYQDEPSFRDSKVVFSVFEDDFKSDCEGNLTEKLMLKGIEKNDVESIVKSPANYEELCKLAIAYSDGVIQNSEKVNENVMKFARESGVPVLDYQPADTYVDAFNEFYDKVWEFEKK | not soluble
9 | MAAGQNGHEEWVGSAYLFVESSLDKVVLSDAYAHPQQKVAVYRALQAALAESGGSPDVLQMLKIHRSDPQLIVQLRFCGRQPCGRFLRAYREGALRAALQRSLAAALAQHSVPLQLELRAGAERLDALLADEERCLSCILAQQPDRLRDEELAELEDALRNLKCGSGARGGDGEVASAP | soluble
10 | GLEYRFSKSKQALELTSLRLKEKSEQLEHSQRVAIVGEIGSSLAHELNQPLAAIRNYSEGGLLRLAKKRPHEDIVPVLEKIQGQVERADAIIQRLRTLIRKRSVDKTPCDIQALIADTIELLHFRMQKQNVAIVTSVEGEIRPLLADSVGVQQVLVNVINNAIDACALFQEKYHSSGYQGKIALHCDYQANQLSIRILDNGTGLQQENPTQAFVSSKAEGLGLGLAICRDVMEMHGGEFLIASTTPHGCLVELVFPYQN | not soluble
11 | MSLTDLSMPKPPSVLPDKRQVAASFSRAAGSYESVAELQRSVGSELLSRLPAQFSPVRWLDLGSGTGYFSRALDQVFSGSEGIALDIAEGMLRHAQPLGGAQHFVAGDAEHLPLRDQSCGLIFSSLAVQWCADFAAVLREAHRVLQPSGVFAFASLCVGTLYELRDSWQAVDGQVHVNRFRHEDDYRQLCAASGLQVRSLDVCPQVLHYPDVRSLTHELKALGAHNLNPGRPSGLTGRERIKGMVQAYEAFRQEAGLPATYQVVYAVLEKAEGHHHHHH | not soluble
12 | MAISDWPEAERPREKLIEKGAAALSDAELLAIFLRTGITGVSAVELARKLLTHFGSLTKLCAASLHEFSELPGMGPAKFAQLQAVMEMAKRALAEELKNGDIMDSPQSVRNYLCLSLKGKPYEVFVGIFLDARHRTIVTEELFNGTLTQASVYPREVVKRALYHNAAAMIFAHNHPSGIAEPSTADEILTQSLKQALALVDVKVLDHFVIGSSEVVSFAERGLI | not soluble
13 | MSLNLETPSQENLNFMLTEITTKLKMVNVGVFENLELDSVDYNALIDIYQLIKRKSNFSPREMQLFAEELRRIRKEGHHHHHH | soluble
14 | MRLEKFIHLLGERGFDGALISPGTNLYYLTGLRLHEVGERLAILAVSAEGDYRFLAPSLYENVVNNFPATFWHDGENPYAKLREILEELGISKGRILIEDTMRADWLIGIMKLGKFTFQPLSSLIKELRMIKDKEEVKMMEHASRIADKVFEEILTWDLIGMKERELALKIELLIRELSDGIAFEPIVASGENAANPHHEPGERKIRKGDIIILDYGARWKGYCSDITRTIGLGELDERLVKIYEVVKDAQESAFKAVREGIKAKDVDSRAREVISKAGYGEYFIHRTGHGLGLDVHEEPYIGPDGEVILKNGMTFTIEPGIYVPGLGGVRIEDDIVVDEGKGRRLTKAERELIIL | soluble
15 | MSLSKPLQVNPHKLSPVMGAHLACLGVDGVMPIIHGAQGCSNFSKVFFTRHFSEPIVSHSTAVNDITAVLDGGACVAEAIDTLAKKSPFKLAAIITTGLTETKGDDVKGAIGQLSYPALYFPTPDYEGGLEEGFALAIEVFIKERMVSVTTPDPKLALILPHASMTPLEVEKLKEFLEDFGVRALALPDLSGSLDGHLEERQGSVSKGGITLEEIEEASRAGMILSIGESTRKARQAFLAKNPGAFDLNVESLYGLRSSDALIRALMDWTGHEPSVRIKRWRARLQDMMLDSHFALGGKRVIAALENDHLLGISKILEEVGMSFELAVATTGGPAMTKISAKEAVVGDLEHLMQNIESSEGVIACERLGGFLPKETPWLVRGYPIFERIGTGLGNDILYEGGCYLLKELANLFLKEHQAHEGHHHHHH | soluble
16 | MDHRAQAREVFVRAQLEAVQKAITKNEVPLKPKHARTIIVGTHKEKSSGIFWHTVGRIQLEKHPVLTWKFCHLVHKLLRDGHRKVPEETYRYVNRFTQLSQFWKHLNTSGYGPCIESYCKLLHDRVTFHNKYPVVPGKLDLNDSQLKTLEGDLDNMFEMTIDMLDQMDALLVLQDRVYEMMNSLRWNSLIPQGQCMLSPLIIAILDTSKFYDYLVKMIFKLHSQVPPDALEGHRSRFRTIFERTKKFYEESSNLQYFKYLVSIPTLPSHAPNFLQQSDLESYRTPHAYLHSEGSEDGTSLNGHDGELLNLAEAEPQQASPSSQPDPREEQIVMLSRAVEDEKFAKERLIQEARSRIEQYENRLLQMQGEFDHAKREADENREEAQRLKNELALRDASRTQTDDARVKEAELKATAAEERFNKMKGVYEKFRSEHVLALTKLGDIQKQLEASEKSKFDKDEEITALNRKVEEAQREAGRALTKAEGDAGAVDEMRTQLVKADIEVEELKRTIDHLRESHANQLVQSSAEETNKIRLAELEVAKESGVGITQMFDHCEDALQNATSITYPPHLAQSAMNNLVNILSNERLDEPLATKDNVFAGHLLSTTLSAAASAAYTASIESYEGVNDQCKKVLAAAKVAFSDDSALSRADKMKLLRQDIQTLNSLMISLPLQTDIDKDVVGNELEQEMRRMDDAIRRAVQEIEAIQRRARESSDGIRLEVNESILANCQALMSVIMQLVIASRELQTEIVAAGKAGGSPAEFYKRNHQWTEGLLSAAKAVGVAARVLVESADGVVTGKGKFEHLIVAAQEIAASTAQLFVSSRVKADKDSSKLDALSVAAKAVNQNTAQVVAAVKNGQTTLNDEGSLDFSYLSLHAAKKEEMESQVKMLELEQSLNQERAKLAALRKQHYHMAQLVANKEGEEAQE | not soluble
17 | MNVVILDTGCANLNSVKSAIARHGYEPKVSRDPDVVLLADKLFLPGVGTAQAAMDQVRERELFDLIKACTQPVLGICLGMQLLGRRSEESNGVDLLGIIDEDVPKMTDFGLPLPHMGWNRVYPQAGNRLFQGIEDGAYFYFVHSYAMPVNPWTIAQCNYGEPFTAAVQKDNFYGVQFHPERSGAAGAKLLKNFLEM | soluble
18 | MAHHHHHHMQVWGLVGRLTLPPSSSGKARKGSRRIPAADARLSKGSVNNRGRFVHNNRRMDNTLSVVVEKPAGLRRQWIAWPRGKSRDDPYEAIVPLLHISHYLPPVMAEAASCLDVKASFFPSLFTAGDSASLSMPRGGRHAGGADTTFNGIQGQPRNSPDYYYLGNRGGDDGGSPLWAAPPMVRIEVWIDNIRITGSKSDVTLWEAQVLRNADSCHAYLGGTANRALRNTLFWGYDLIKLTVRYP | not soluble
19 | MATFFLLSAGKAQDRIPACPPLGKTLKMIKPLREMNWANDTIAVQTSFPSAFRETGRDEIIDSIALLTPVFERLRQVRAGLSEDTVRILHIGDSHVRGHIYPQTTGTLLKETFGAVSYTDMGVNGATCLTFTHPGRIADIAAMKPELLILSFGTNESHNRRYNVNLHYNQMDELVKLLRDSLPDVPILLTTPPGSYESFRQRRRKRTYAINPRTVTAAETIRRYAKDHRLLVWDMYDVVGGKRRACTNWTEAKLMRPDHVHYLPEGYILQGNLLYQAIIQAYNDYVSH | not soluble
20 | MAQNLIFITIALVAIVNAGPGEEREKGPGEHKRGGKHHGFPSFFGNVSAEGRKEIAVVFKNENLTLAQADTQIASLAEKYGFAAAYKEHKEKEAVRQAETKKNTTTVINNLSSVATKLSAIRENKDQTRKAQHEAIEALRNENGVEVDTIEFIAKRSRGFGGRHGGRKGGKGGKHFGKKNGDKKRGPHGGDEEGKKTKEAAQ | not soluble
